In patent US20120100139A1 (APTEVO RESEARCH AND DEVELOPMENT, published 2012):
Blank lines part the entries; values can stand above or below the binder they belong to.

Experiments:
[1] = biological target: T1, Murine CD86-mIgG (R&D Systems, Inc) (murine, UniProt P42082 24-244, limits assumed); assay: SPR (BIAcore T100), murine CD86-mIgG immobilized on CM5; bivalent analyte model, first site
T1 construct: also called muCD86
T1 sequence (looked up): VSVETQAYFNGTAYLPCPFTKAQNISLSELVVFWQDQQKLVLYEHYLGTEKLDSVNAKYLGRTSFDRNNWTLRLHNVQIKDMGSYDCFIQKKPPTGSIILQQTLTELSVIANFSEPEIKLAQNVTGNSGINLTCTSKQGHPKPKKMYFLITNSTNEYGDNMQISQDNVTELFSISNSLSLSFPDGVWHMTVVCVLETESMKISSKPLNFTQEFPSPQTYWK
Experimental: (§1) SPR measurements were performed on a BIAcore™ T100 SPR (Pharmacia Biotech AB, Uppsala) using HBS-EP+ (GE Healthcare) as a running buffer. Murine CD86-mIgG (25 μg/mL in 10 mM sodium acetate, pH 4.0, R&D Systems, Inc) was directly immobilized onto a CM5 chip using standard amine coupling chemistry (Biacore Amine Coupling Kit, GE Healthcare), with final immobilization levels of 150, 493, and 746 Ru. CTLA4-containing constructs were injected for 150 seconds, at a flow rate of 10 μl/min, in a series of concentrations from 4 nM to 8 μM. Dissociation was monitored for 600 seconds (CTLA4 constructs) or 1200 seconds (GL1 constructs), and the surface was regenerated by injecting 10 mM glycine, pH 1.7, for 60 seconds. […] Data were analyzed using BiaEvaluation for the T100 software (version 2.0.1, GE Healthcare).

[2] = biological target: T1, Murine CD86-mIgG (R&D Systems, Inc); assay: SPR (BIAcore T100), murine CD86-mIgG immobilized on CM5; steady-state equilibrium fit
Experimental: as §1

[3] = biological target: T1, Murine CD86-mIgG (R&D Systems, Inc); assay: SPR (BIAcore T100), murine CD86-mIgG immobilized on CM5; bivalent analyte model, second site
Experimental: as §1

CD86-mIgG (Ancell, Inc) [4] = biological target: T2, CD86-mIgG (Ancell, Inc) (UniProt P42081 24-247, limits assumed); assay: SPR (BIAcore T100), CD86-mIgG immobilized on CM5; steady-state equilibrium fit
T2 construct: Bought reagent
T2 sequence (looked up): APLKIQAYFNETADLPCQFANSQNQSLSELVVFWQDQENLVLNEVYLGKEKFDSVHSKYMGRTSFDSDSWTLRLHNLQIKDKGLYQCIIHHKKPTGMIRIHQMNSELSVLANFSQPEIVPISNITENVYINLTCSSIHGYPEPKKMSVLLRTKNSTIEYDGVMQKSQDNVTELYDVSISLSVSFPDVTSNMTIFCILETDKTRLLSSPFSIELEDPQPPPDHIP
Experimental: (§2) SPR measurements were performed on a BIAcore™ T100 SPR (Pharmacia Biotech AB, Uppsala) using HBS-EP+ (GE Healthcare) as a running buffer. […] CTLA4-containing constructs were injected for 150 seconds, at a flow rate of 10 μl/min, in a series of concentrations from 4 nM to 10 μM. Dissociation was monitored for 600 seconds, and the surface was either regenerated by injecting 50 mM sodium citrate, 500 mM sodium chloride, pH 5.0, for 60 seconds (wild type CTLA4) or 10 mM glycine, pH 1.7 (L104E A29Y CTLA4). […] Data were analyzed using BiaEvaluation for the T100 software (version 2.0.1, GE Healthcare).
(§3) SPR measurements were performed as listed above, with the following exceptions: HBS-P+ (GE Healthcare) was used as a running buffer; dissociation was monitored for 1200 seconds; and the surface was regenerated by injecting 10 mM glycine, pH 1.7, for 60 seconds.

CD86-mIgG (Ancell, Inc) [5] = biological target: T2, CD86-mIgG (Ancell, Inc); assay: SPR (BIAcore T100), CD86-mIgG immobilized on CM5; second site
Experimental: as §2, §3

CD86-mIgG (Ancell, Inc) [6] = biological target: T2, CD86-mIgG (Ancell, Inc); assay: SPR (BIAcore T100), CD86-mIgG immobilized on CM5; first site
Experimental: as §2, §3

B1: GL1 PIMS (Fc fusion)
chain: EPKSSDKTHTCPPCPAPEAAGAPSVFLFPPKPKDTLMISRTPEVTCVVVDVSHEDPEVKFNWYVDGVEVHNAKTKPREEQYNSTYRVVSVLTVLHQDWLNGKAYACAVSNKALPAPIEKTISKAKGQPREPQVYTLPPSRDELTKNQVSLTCLVKGFYPSDIAVEWESNGQPENNYKTTPPVLDSDGSFFLYSKLTVDKSRWQQGNVFSCSVMHEALHNHYTQKSLSLSPGNSLFNQEVQIPLTESYSPNSEVQLVESAGGLVQPGRSLKLSCAASGFTFSDYYMAWVRQAPTKGLEWVATISHDGSSTYYRDSVKGRFTISRDNAKTILYLQMDSLRSEDTATYFCARQNIMDYWGQGVMVTVSSGGGGSGGGGSGGGGSGGGGSDIVMTQTPSSQAVSAGEKVTMSCKSSQSLLYSRDQSNYLAWYQQKPGQSPKLLIYLASTRESGVPDRFIGSGSGTDFTLTISSVQAEDLADYYCQQHYNYPLTFGSGTKLEIK
- koff [1]: 0.000125 s⁻¹
- kon [1]: 177000 M⁻¹ s⁻¹
- Kd [2]: 78.3 nM
- Second Site ka [3]: 0.0431 s⁻¹
- Second Site kd [3]: 0.0977 s⁻¹

B2: GL1 SMIP (Fc fusion)
chain: EVQLVESAGGLVQPGRSLKLSCAASGFTFSDYYMAWVRQAPTKGLEWVATISHDGSSTYYRDSVKGRFTISRDNAKTILYLQMDSLRSEDTATYFCARQNIMDYWGQGVMVTVSSGGGGSGGGGSGGGGSGGGGSDIVMTQTPSSQAVSAGEKVTMSCKSSQSLLYSRDQSNYLAWYQQKPGQSPKLLIYLASTRESGVPDRFIGSGSGTDFTLTISSVQAEDLADYYCQQHYNYPLTFGSGTKLEIKLEPKSSDKTHTCPPCPAPEAAGAPSVFLFPPKPKDTLMISRTPEVTCVVVDVSHEDPEVKFNWYVDGVEVHNAKTKPREEQYNSTYRVVSVLTVLHQDWLNGKAYACAVSNKALPAPIEKTISKAKGQPREPQVYTLPPSRDELTKNQVSLTCLVKGFYPSDIAVEWESNGQPENNYKTTPPVLDSDGSFFLYSKLTVDKSRWQQGNVFSCSVMHEALHNHYTQKSLSLSPG
notes: SMIP containing a single-chain GL1 antibody fragment
- koff [1]: 6.2e-05 s⁻¹
- kon [1]: 118000 M⁻¹ s⁻¹
- Kd [2]: 26.2 nM
- Second Site ka [3]: 0.00964 s⁻¹
- Second Site kd [3]: 0.0185 s⁻¹

B3: (monoIL10-A2 hinge::FUN1-21)-75 xceptor (Fc fusion)
chain: SPGQGTQSENSCTHFPGNLPNMLRDLRDAFSRVKTFFQMKDQLDNLLLKESLLEDFKGYLGCQALSEMIQFYLEEVMPQAENQDPDIKAHVNSLGENLKTLRLRLRRCHRFLPCENGGGSGGKSKAVEQVKNAFNKLQEKGIYKAMSEFDIFINYIEAYITMKIRNLEPPPPPCPPCPAPEAAGAPSVFLFPPKPKDTLMISRTPEVTCVVVDVSHEDPEVKFNWYVDGVEVHNAKTKPREEQYNSTYRVVSVLTVLHQDWLNGKAYACAVSNKALPAPIEKTISKAKGQPREPQVYTLPPSRDELTKNQVSLTCLVKGFYPSDIAVEWESNGQPENNYKTTPPVLDSDGSFFLYSKLTVDKSRWQQGNVFSCSVMHEALHNHYTQKSLSLSPGQRHNNSSLNTGTQMAGHSPNSQVQLVQSGAEVKKPGASVKVSCKASGYTFTDYNMNWVRQAPGQGLEWMGNIDPYYGGTSYNQKFKGRVTMTRDTSISTAYMELSRLRSDDTAVYYCARWDYRYDDGRAYYVMDFWGQGTTVTVSSGGGGSGGGGSGGGGSGGGGSDIVMTQSPDSLAVSLGERATINCKSSQSVLYSSNQKNYLAWYQQKPGQPPKLLIYWASTRESGVPDRFSGSGSGTDFTLTISSLQAEDVAVYYCHQYLYSWTFGQGTKLEIKR
notes: also called monoIL10::FUN1-21
- Kd (CD86-mIgG (Ancell, Inc) [4]): 178 nM
- Second Site ka (CD86-mIgG (Ancell, Inc) [5]): 0.011 s⁻¹
- Second Site kd (CD86-mIgG (Ancell, Inc) [5]): 0.0111 s⁻¹
- koff (CD86-mIgG (Ancell, Inc) [6]): 0.000344 s⁻¹
- kon (CD86-mIgG (Ancell, Inc) [6]): 12600 M⁻¹ s⁻¹

B6: (IL10 I87A::FUN1-21)-75 xceptor (Fc fusion)
chain: SPGQGTQSENSCTHFPGNLPNMLRDLRDAFSRVKTFFQMKDQLDNLLLKESLLEDFKGYLGCQALSEMIQFYLEEVMPQAENQDPDAKAHVNSLGENLKTLRLRLRRCHRFLPCENKSKAVEQVKNAFNKLQEKGIYKAMSEFDIFINYIEAYITMKIRNLEPKSSDKTHTCPPCPAPEAAGAPSVFLFPPKPKDTLMISRTPEVTCVVVDVSHEDPEVKFNWYVDGVEVHNAKTKPREEQYNSTYRVVSVLTVLHQDWLNGKAYACAVSNKALPAPIEKTISKAKGQPREPQVYTLPPSRDELTKNQVSLTCLVKGFYPSDIAVEWESNGQPENNYKTTPPVLDSDGSFFLYSKLTVDKSRWQQGNVFSCSVMHEALHNHYTQKSLSLSPGQRHNNSSLNTGTQMAGHSPNSQVQLVQSGAEVKKPGASVKVSCKASGYTFTDYNMNWVRQAPGQGLEWMGNIDPYYGGTSYNQKFKGRVTMTRDTSISTAYMELSRLRSDDTAVYYCARWDYRYDDGRAYYVMDFWGQGTTVTVSSGGGGSGGGGSGGGGSGGGGSDIVMTQSPDSLAVSLGERATINCKSSQSVLYSSNQKNYLAWYQQKPGQPPKLLIYWASTRESGVPDRFSGSGSGTDFTLTISSLQAEDVAVYYCHQYLYSWTFGQGTKLEIKR
- Kd (CD86-mIgG (Ancell, Inc) [4]): 88.5 nM
- Second Site ka (CD86-mIgG (Ancell, Inc) [5]): 0.0198 s⁻¹
- Second Site kd (CD86-mIgG (Ancell, Inc) [5]): 0.0579 s⁻¹
- koff (CD86-mIgG (Ancell, Inc) [6]): 0.000433 s⁻¹
- kon (CD86-mIgG (Ancell, Inc) [6]): 40700 M⁻¹ s⁻¹

The remaining lines, values ahead:

- koff [1]: 0.00019 s⁻¹
- kon [1]: 219000 M⁻¹ s⁻¹
- Kd [2]: 86.4 nM
- Second Site ka [3]: 0.00943 s⁻¹
- Second Site kd [3]: 0.0182 s⁻¹
B4: GL1::IL10 xceptor (Fc fusion)
chain: EVQLVESAGGLVQPGRSLKLSCAASGFTFSDYYMAWVRQAPTKGLEWVATISHDGSSTYYRDSVKGRFTISRDNAKTILYLQMDSLRSEDTATYFCARQNIMDYWGQGVMVTVSSGGGGSGGGGSGGGGSGGGGSDIVMTQTPSSQAVSAGEKVTMSCKSSQSLLYSRDQSNYLAWYQQKPGQSPKLLIYLASTRESGVPDRFIGSGSGTDFTLTISSVQAEDLADYYCQQHYNYPLTFGSGTKLEIKLEPKSSDKTHTCPPCPAPEAAGAPSVFLFPPKPKDTLMISRTPEVTCVVVDVSHEDPEVKFNWYVDGVEVHNAKTKPREEQYNSTYRVVSVLTVLHQDWLNGKAYACAVSNKALPAPIEKTISKAKGQPREPQVYTLPPSRDELTKNQVSLTCLVKGFYPSDIAVEWESNGQPENNYKTTPPVLDSDGSFFLYSKLTVDKSRWQQGNVFSCSVMHEALHNHYTQKSLSLSPGNSLFNQEVQIPLTESYSPNSSPGQGTQSENSCTHFPGNLPNMLRDLRDAFSRVKTFFQMKDQLDNLLLKESLLEDFKGYLGCQALSEMIQFYLEEVMPQAENQDPDIKAHVNSLGENLKTLRLRLRRCHRFLPCENKSKAVEQVKNAFNKLQEKGIYKAMSEFDIFINYIEAYMTMKIRN

- Kd (CD86-mIgG (Ancell, Inc) [4]): 98.6 nM
- Second Site ka (CD86-mIgG (Ancell, Inc) [5]): 0.0064 s⁻¹
- Second Site kd (CD86-mIgG (Ancell, Inc) [5]): 0.0387 s⁻¹
- koff (CD86-mIgG (Ancell, Inc) [6]): 0.000128 s⁻¹
- kon (CD86-mIgG (Ancell, Inc) [6]): 158000 M⁻¹ s⁻¹
B5: IL10::FUN1-21 xceptor (Fc fusion)
chain: SPGQGTQSENSCTHFPGNLPNMLRDLRDAFSRVKTFFQMKDQLDNLLLKESLLEDFKGYLGCQALSEMIQFYLEEVMPQAENQDPDIKAHVNSLGENLKTLRLRLRRCHRFLPCENKSKAVEQVKNAFNKLQEKGIYKAMSEFDIFINYIEAYITMKIRNLEPKSSDKTHTCPPCPAPEAAGAPSVFLFPPKPKDTLMISRTPEVTCVVVDVSHEDPEVKFNWYVDGVEVHNAKTKPREEQYNSTYRVVSVLTVLHQDWLNGKAYACAVSNKALPAPIEKTISKAKGQPREPQVYTLPPSRDELTKNQVSLTCLVKGFYPSDIAVEWESNGQPENNYKTTPPVLDSDGSFFLYSKLTVDKSRWQQGNVFSCSVMHEALHNHYTQKSLSLSPGNSLFNQEVQIPLTESYSPNSQVQLVQSGAEVKKPGASVKVSCKASGYTFTDYNMNWVRQAPGQGLEWMGNIDPYYGGTSYNQKFKGRVTMTRDTSISTAYMELSRLRSDDTAVYYCARWDYRYDDGRAYYVMDFWGQGTTVTVSSGGGGSGGGGSGGGGSGGGGSDIVMTQSPDSLAVSLGERATINCKSSQSVLYSSNQKNYLAWYQQKPGQPPKLLIYWASTRESGVPDRFSGSGSGTDFTLTISSLQAEDVAVYYCHQYLYSWTFGQGTKLEIKR

- koff [1]: 0.000106 s⁻¹
- kon [1]: 78900 M⁻¹ s⁻¹
- Kd [2]: 37.7 nM
- Second Site ka [3]: 0.00879 s⁻¹
- Second Site kd [3]: 0.00635 s⁻¹
B7: GL1 mAb (parent rat anti-murine CD86 monoclonal antibody) (antibody, V domains shown)
VH: EVQLVESAGGLVQPGRSLKLSCAASGFTFSDYYMAWVRQAPTKGLEWVATISHDGSSTYYRDSVKGRFTISRDNAKTILYLQMDSLRSEDTATYFCARQNIMDYWGQGVMVTVSS
VL: DIVMTQTPSSQAVSAGEKVTMSCKSSQSLLYSRDQSNYLAWYQQKPGQSPKLLIYLASTRESGVPDRFIGSGSGTDFTLTISSVQAEDLADYYCQQHYNYPLTFGSGTKLEIK
notes: also called GL1 antibody
